± gives the half width of the 95% confidence interval.
Key:
[1] = folding stability dG unfold from trypsin proteolysis; higher = more stable
Summary of the method: (§1)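 How resistant each design was to proteolysis was captured as K50, inferred by Bayesian fitting of sequencing counts. Unfolding free energy was then derived relative to a sequence-predicted unfolded-state K50 and a shared folded-state K50, per protease or combined. Digestion used trypsin and chymotrypsin at 11 threefold-diluted concentrations plus a no-protease condition, on mini-proteins under 80 residues without cysteine in a PA-tagged cDNA display construct. Designs were kept only when AlphaFold2 dimer inter-PAE was above 15.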

[2] = folding stability dG unfold from chymotrypsin proteolysis; higher = more stable
Summary of the method: as §1

[3] = folding stability dG unfold (combined trypsin and chymotrypsin); higher = more stable
Summary of the method: as §1

Sequence | folding stability dG unfold [1] [kcal/mol] | folding stability dG unfold [2] [kcal/mol] | folding stability dG unfold [3] [kcal/mol]
SAGGSAGGSAGGSMSGVFSTETVFLEKTLPDGSRVEALTTIETYLPLPPLPPFKFPSAVSAGGSAGGSAGGS [r4_325_JUSTAS] | 0.13 ± 0.1 | 0.415 ± 0.13 | 0.437 ± 0.26
SAGGFEEKVKAGEEVVDVVAPITLPDGTEAVVTRVEPVDDGLLVTLRPPWTGEEVELPLPASEIPKLPSAGG [r13_340_JUSTAS] | 1.1 ± 0.057 | 1.21 ± 0.056 | 1.11 ± 0.077
SAGGKTVPIMFPFDSPDQIEEIIEELAKPGFDDVKPERIEPEPPPDGNYYFPVRIEVDPKNGKIEITFSAGG [r13_174_TrROS] | 0.0445 ± 0.13 | 0.185 ± 0.19 | -0.0243 ± 0.29
SAGGSAGGSAGDVEVRFEVKFTPDGTLIIKAEIRLPDIPDVTIRVEAVILPNGEILVKVSSAGGSAGGSAGG [r11_483_TrMRF] | 3.68 ± 0.11 | 3.06 ± 0.15 | 3.68 ± 0.16
SAGGSMTVETSISRLPDGTYTVTVTFTLKNPDGSPVGTITIPVTMSPEVLAKTPLETVVAEAVAAASAGGSA [r2_421_JUSTAS] | 2.44 ± 0.056 | 3.48 ± 0.048 | 3.09 ± 0.077
SAGGSPERSAEELAEELAERIRELLREEAASFELPLHVHIVVPDPEGRRREFDVEVHVRVEVPEDARSAGGS [r16_550_TrMRF] | 0.898 ± 0.025 | 1.14 ± 0.034 | 1.05 ± 0.054
SAGGPVLVLVEVEAGFDGRPRLRRLVLPVELRPDGTVDLDAVRRAVEELLPPDWRILRIEVVPPDAPFSAGG [r13_504_TrMRF] | 1.577 ± 0.011 | 1.46 ± 0.045 | 1.58 ± 0.047
SAGGSAEPLVYELPDGTVVLLPPTTAVVYHRLSDGRVVVVGLEVDDPPDPEKALARARAVVEALPDSAGGSA [r15_748_TrMRF] | 0.067 ± 0.25 | 1.6 ± 0.11 | 1.26 ± 0.13
SMTISIPGGITITIEPKPNSYTLTVSFPDGSTVTRPVDPSDLTSAIKAVIREALRRADPNITEEEIEKLLSA [r9_634_JUSTAS] | 4.39 ± 0.1 | 6.07 ± 0.17 | > 6
SAGGSAGPEITPPVVVVTFTFKFPDGKTIEIPTTDLEEGEKEIEKIKKPLLEKKNIELVKVTTKPVSAGGSA [r15_140_JUSTAS] | -0.607 ± 0.37 | -0.389 ± 0.36 | -0.583 ± 0.36
SAGGSAGGSAGMVVVERTSAPDPDKPTSYWFYTKTTFFPDGSVLSETKKFPSPAELEKATSAGGSAGGSAGG [r11_792_JUSTAS] | 0.793 ± 0.023 | 1.07 ± 0.12 | 0.992 ± 0.07
SAGGSAMTVTKVGSETKTDPAKGIVTTTEITKLPTGGLTKTVTTTTIEGGKVKSSTTTTTAIPVGTSAGGSA [r15_283_JUSTAS] | -0.156 ± 0.061 | 0.266 ± 0.065 | 0.104 ± 0.085
SAGGSAGGSEEIKKAIEEALKKMKPGEEKEVTIEIYDKKTNKKIAKIKIRIRRKKDGKLEIEFSAGGSAGGS [r20_151_TrROS_Hall] | 4.01 ± 0.2 | 3.6 ± 0.19 | 3.77 ± 0.19
SAGGSATVEVATEPDGTVTVTTLETDPAEPRGTVTTTTVTVTTEPTPEPFLSSSTTTTTTATAPAPSAGGSA [r15_438_JUSTAS] | 0.138 ± 0.048 | -0.291 ± 0.075 | -0.0573 ± 0.059
SAGGMEEIEPVTITITVVDEETGEKVEIKITVPKEEITRIEIKPDGTIRIYFKENNEVIEIKLEDIKSAGGS [r16_410_TrROS_Hall] | 2.99 ± 0.24 | 4.22 ± 0.19 | 4.16 ± 0.32
SAGGSAGGSAGGMKVKAYIFENGKLKEIELSEEELKELLKKLPNARILIEVDGKKLELPASAGGSAGGSAGG [r7_188_TrROS_Hall] | 1.93 ± 0.083 | 3.79 ± 0.12 | 3.51 ± 0.2
SAGGSAGGSDLVRVEMLITKIVPGTGDPVETVKIEVEVPRSEIPKVIEEIPEGYEVTEIKFIPESAGGSAGG [r6_777_JUSTAS] | 2.05 ± 0.079 | 1.18 ± 0.062 | 1.57 ± 0.11
SMPTLKITIEKKLPNGEKKKIEIEISLEELLKEARKKKGLESEEEAREALAKELAEKLKEEGYKVKIEPVSA [r9_868_TrROS_Hall] | 0.855 ± 0.17 | 0.209 ± 0.42 | 0.525 ± 0.32
SYLPESVPYDLVELTVVAKGKSPEYLEKKIKEAFKDVKIEPFYDPEKKLVTFKIVFPNKETAEKFKELVSSA [r9_764_TrMRF] | 1.93 ± 0.054 | 2.28 ± 0.041 | 2.16 ± 0.07
SAGGSAGGSAPPNLKIEIDLQRHPEDDHIFLEMEATYPDDGKELKVMIMINPDDGKIGIMIMSAGGSAGGSA [r18_383_TrROS] | 2.76 ± 0.22 | 3.7 ± 0.29 | 3.34 ± 0.29
SAGGSAGGSNWYQFTIPFPIPPDEPVEIKLPDGWEIHEIPPNSGRITIYMPMNNMDAIKEAIGSAGGSAGGS [r12_476_TrROS] | 1.214 ± 0.012 | 1.01 ± 0.045 | 1.19 ± 0.056

Sequence | folding stability dG unfold [1] [kcal/mol] | folding stability dG unfold [2] [kcal/mol] | folding stability dG unfold [3] [kcal/mol]
SAGGSAGGSAGSTVTLELEIDGVRITVKAELTPDGELRLTITEVEVLPPPPVVHPDDPEALKSAGGSAGGSA [r18_176_TrROS_Hall] | 1.54 ± 0.049 | 1.1 ± 0.064 | 1.33 ± 0.11
SAGKTVEIKVTLKITRYEKLPDGSVKKEVKTLTITVTMSEEELNKEEIKNALKELLEKLPPDVKKIEITSAG [r5_849_TrROS_Hall] | 2.8 ± 0.17 | 4.63 ± 0.083 | 4.34 ± 0.22
SAGGSASSSLEVEVTAESPDPETGELRVTAVITTTYFDPSTGSTSTTTTTLTLTPEELAALVAALSSAGGSA [r2_357_JUSTAS] | 3.92 ± 0.071 | 4.35 ± 0.049 | 4.332 ± 0.043
SAGGSAGGSAGMYYVIKRPGKVEILPEEEVPKVIEEDPNVEVKKFDSEEEAKKALEELLKSAGGSAGGSAGG [r11_60_JUSTAS] | 0.539 ± 0.039 | 0.793 ± 0.073 | 0.704 ± 0.058
SAGGSMIPLTVTRYDPNSDKPVSTTPVVYDPETGTWTAYPPDGSRTTYALSLEDLIAALPSTWSVGPSAGGS [r16_543_JUSTAS] | 0.452 ± 0.034 | 0.599 ± 0.052 | 0.567 ± 0.044
SAGGMLTLIDPETGEPFLTTPIATFTVPVTLTGPDGKPLETRTLRITLFRAYRPDGSPALILLVSPESAGGS [r8_214_TrMRF] | 3.7 ± 0.083 | 4.73 ± 0.061 | 4.3 ± 0.052
SASSMSLSFSVSLETDPEKGLLSTVTTTSTVTPYPDSVVTTTTVTTTVTPVPPGPPVVSPSATPVVALSSAG [r14_435_JUSTAS] | 1.47 ± 0.04 | 0.593 ± 0.098 | 1.13 ± 0.051
SAGGSAGGSEKTIKITIKVKVKKKVTVKNKNGEKKTFEFEEKTYTLTTIKFDSKEDALKALKKSAGGSAGGS [r12_452_TrROS_Hall] | 1.35 ± 0.044 | 2.48 ± 0.073 | 2.17 ± 0.22
SAGMLRVDIEIPPAFRKMLKNAPPGETVMFELPIKIKIEYYQPDGGKPEPKEHEQPFPVQFMVVLPPDGSAG [r5_946_TrROS] | 2.14 ± 0.16 | 3.18 ± 0.12 | 2.84 ± 0.2
SAGGSAGGSAGGSKTVLLKVNGKLVLKELKVEVELEAEPETTTTTTTTTTLKPGETKTLSAGGSAGGSAGGS [r4_215_TrROS_Hall] | -0.499 ± 0.17 | 0.397 ± 0.11 | 0.109 ± 0.096
SWKIKISIERTGDWITVKIWYDNPSELRNAIEMIAEKLGMKVEIDDVSWKRDPNGWYEATITVRIKPGMPSA [r9_102_TrROS] | 3.27 ± 0.18 | 3.31 ± 0.077 | 3.42 ± 0.16
SGMVEVKVTVPPGPATLTATPSDGSTYSKSIPANSEVTFTFPVPASLPSSTTITFTLTFPDTGTTTTTSVSA [r9_275_JUSTAS] | 1.28 ± 0.051 | 1.26 ± 0.25 | 1.28 ± 0.26
SAGGMTLTLTGPEEVVDDLLERLREEFPDVTVEPTAVSYDPATGLVTVPVRVVTEDPAVVAAIRAALSSAGG [r13_539_JUSTAS] | 4.08 ± 0.091 | 3.562 ± 0.03 | 3.79 ± 0.065
SKKTITITIEDKETGLKVEITINEDGTITIKVYDKDGKLVAEVKAKIKLVKDKDGKIRLVIEEIEIKVKPSA [r9_434_TrROS_Hall] | 3.87 ± 0.46 | 3.04 ± 0.13 | 3.61 ± 0.44
SMKTKTVTLDLSPEDPEAARAAVEAAIAEARAADPDTEVTVTVTISPEHPELLAEIEALAAERGVSLVLGSA [r9_1202_JUSTAS] | 2.74 ± 0.058 | 2.84 ± 0.06 | 2.81 ± 0.097
SAGGSAGGSAGGSYIIVQFPADEIKEALPPGFEIKSIERSPKNGWVMVAIRYPKDGKPISAGGSAGGSAGGS [r4_435_TrROS] | 1.04 ± 0.038 | 0.416 ± 0.17 | 0.818 ± 0.2
SAGGSAGGMVTSTDPATGIVYSLDPTTGVWSAQTVTLPPITIPVSEVPELLKALPPGTPILVLASAGGSAGG [r6_104_JUSTAS] | 1.01 ± 0.016 | 1.16 ± 0.064 | 1.14 ± 0.037
SAGGSAGGSKKPIPVKVIETKPDPEIGGITTVELEFPDGSKATFTSIEDIEKIPDIEVEIKLGSAGGSAGGS [r20_192_TrMRF] | 0.591 ± 0.027 | 0.639 ± 0.043 | 0.648 ± 0.056
SMYRIRVKIKIKNPKTGKVIELPELEGMSLEEVLEIAKELKEKFPGAEVEVEIVEVEPLPPLTEEQLKKLSA [r9_421_TrROS_Hall] | 1.91 ± 0.069 | 2.33 ± 0.083 | 2.11 ± 0.073
SAGMKPNETLPNAIIRIENSKGKVKEFTLPNVVSIEEIDEKNGIITLTLPNNKKITLKVPKNAKITIEGSAG [r5_762_TrMRF] | 3.04 ± 0.11 | 3.5 ± 0.049 | 3.37 ± 0.049
SAGGMPEPRPIPLTLTLLVDPEDPESVEEKLREFFEAFGADEITRVERELLPDGRALVTAEVLVNEPVSAGG [r13_222_TrMRF] | 1.03 ± 0.03 | 1.17 ± 0.043 | 1.15 ± 0.061
